Values belong to the binder of their own block, whether it stands above or below them.
Key:
[1] = target: T1, HA-ASK1 (full-length human, in 293 cells) (human, UniProt Q99683 1-1374); assay: co-IP from 293 cells, anti-FLAG beads, anti-HA Western blot
T1 construct: not shown: HA tag
T1 sequence (looked up): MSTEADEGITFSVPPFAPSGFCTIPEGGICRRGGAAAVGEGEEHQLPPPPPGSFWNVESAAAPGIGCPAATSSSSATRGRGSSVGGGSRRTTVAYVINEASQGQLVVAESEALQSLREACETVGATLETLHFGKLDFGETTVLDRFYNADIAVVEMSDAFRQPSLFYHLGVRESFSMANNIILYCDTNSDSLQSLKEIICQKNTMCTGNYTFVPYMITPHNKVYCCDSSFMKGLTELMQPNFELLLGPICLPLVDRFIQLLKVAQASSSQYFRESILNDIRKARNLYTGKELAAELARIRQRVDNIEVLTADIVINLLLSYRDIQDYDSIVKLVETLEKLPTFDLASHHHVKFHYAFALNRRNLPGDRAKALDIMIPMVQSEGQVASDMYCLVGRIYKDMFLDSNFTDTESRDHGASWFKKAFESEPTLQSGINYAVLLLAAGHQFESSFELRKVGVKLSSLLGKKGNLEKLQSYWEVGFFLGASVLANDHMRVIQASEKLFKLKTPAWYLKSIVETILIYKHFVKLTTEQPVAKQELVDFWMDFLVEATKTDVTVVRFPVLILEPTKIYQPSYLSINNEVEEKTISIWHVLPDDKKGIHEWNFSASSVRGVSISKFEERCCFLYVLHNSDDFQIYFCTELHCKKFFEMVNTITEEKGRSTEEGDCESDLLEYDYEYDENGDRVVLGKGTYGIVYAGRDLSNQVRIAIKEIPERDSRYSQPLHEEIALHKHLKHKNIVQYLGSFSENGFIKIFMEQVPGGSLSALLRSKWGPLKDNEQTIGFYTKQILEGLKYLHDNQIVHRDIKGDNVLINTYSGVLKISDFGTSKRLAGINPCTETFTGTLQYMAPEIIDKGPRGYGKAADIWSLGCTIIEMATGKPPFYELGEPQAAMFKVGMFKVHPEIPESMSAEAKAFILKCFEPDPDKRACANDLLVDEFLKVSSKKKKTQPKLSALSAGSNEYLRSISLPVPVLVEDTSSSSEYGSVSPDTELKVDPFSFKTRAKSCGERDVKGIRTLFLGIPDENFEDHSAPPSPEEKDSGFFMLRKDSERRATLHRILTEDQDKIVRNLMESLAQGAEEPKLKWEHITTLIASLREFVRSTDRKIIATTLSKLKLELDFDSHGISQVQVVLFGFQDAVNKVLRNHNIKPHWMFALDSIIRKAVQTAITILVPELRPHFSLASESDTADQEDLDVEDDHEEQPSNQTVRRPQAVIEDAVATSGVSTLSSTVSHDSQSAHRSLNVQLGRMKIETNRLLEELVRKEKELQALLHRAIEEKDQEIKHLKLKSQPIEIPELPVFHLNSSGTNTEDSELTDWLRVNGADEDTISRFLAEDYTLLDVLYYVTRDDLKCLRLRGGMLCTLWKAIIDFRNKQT

[2] = target: T2, HA-MEKK3 (full-length human, in 293 cells) (human, UniProt Q99759 1-626, limits assumed); assay: as above
T2 construct: not shown: HA tag
T2 sequence (looked up): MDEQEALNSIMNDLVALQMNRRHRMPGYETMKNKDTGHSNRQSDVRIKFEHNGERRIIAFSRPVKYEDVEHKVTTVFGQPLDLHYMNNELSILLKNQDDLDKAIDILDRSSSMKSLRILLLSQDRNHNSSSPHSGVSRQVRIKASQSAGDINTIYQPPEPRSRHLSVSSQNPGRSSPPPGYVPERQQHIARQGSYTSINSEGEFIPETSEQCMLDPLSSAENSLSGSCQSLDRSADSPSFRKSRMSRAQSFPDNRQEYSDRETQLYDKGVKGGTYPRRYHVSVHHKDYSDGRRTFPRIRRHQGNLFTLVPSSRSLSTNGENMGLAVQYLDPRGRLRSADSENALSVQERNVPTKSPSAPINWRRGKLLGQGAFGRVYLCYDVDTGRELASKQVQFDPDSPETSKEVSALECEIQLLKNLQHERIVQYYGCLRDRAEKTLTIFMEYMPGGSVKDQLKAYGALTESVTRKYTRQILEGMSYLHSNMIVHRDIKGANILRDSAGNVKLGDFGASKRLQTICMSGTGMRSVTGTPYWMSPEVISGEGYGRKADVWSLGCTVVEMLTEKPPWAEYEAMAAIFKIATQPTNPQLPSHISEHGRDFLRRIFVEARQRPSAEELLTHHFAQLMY

[3] = target: T3, HA-MEKK1 (full-length human, in 293 cells) (human, UniProt Q13233 1-1512, limits assumed); assay: as above
T3 construct: not shown: HA tag

[4] = target: T4, HA-MEKK4 (full-length murine, in 293 cells) (murine, UniProt O08648 1-1597, limits assumed); assay: co-IP from 293 cells
T4 construct: also called MEKK4/MTK1; not shown: HA tag

[5] = target: T5, HA-GCK (full-length human, in 293 cells) (human, UniProt Q12851 1-820); assay: combined immunoprecipitation and Western blot, 293 cells
T5 construct: not shown: HA tag
T5 sequence (looked up): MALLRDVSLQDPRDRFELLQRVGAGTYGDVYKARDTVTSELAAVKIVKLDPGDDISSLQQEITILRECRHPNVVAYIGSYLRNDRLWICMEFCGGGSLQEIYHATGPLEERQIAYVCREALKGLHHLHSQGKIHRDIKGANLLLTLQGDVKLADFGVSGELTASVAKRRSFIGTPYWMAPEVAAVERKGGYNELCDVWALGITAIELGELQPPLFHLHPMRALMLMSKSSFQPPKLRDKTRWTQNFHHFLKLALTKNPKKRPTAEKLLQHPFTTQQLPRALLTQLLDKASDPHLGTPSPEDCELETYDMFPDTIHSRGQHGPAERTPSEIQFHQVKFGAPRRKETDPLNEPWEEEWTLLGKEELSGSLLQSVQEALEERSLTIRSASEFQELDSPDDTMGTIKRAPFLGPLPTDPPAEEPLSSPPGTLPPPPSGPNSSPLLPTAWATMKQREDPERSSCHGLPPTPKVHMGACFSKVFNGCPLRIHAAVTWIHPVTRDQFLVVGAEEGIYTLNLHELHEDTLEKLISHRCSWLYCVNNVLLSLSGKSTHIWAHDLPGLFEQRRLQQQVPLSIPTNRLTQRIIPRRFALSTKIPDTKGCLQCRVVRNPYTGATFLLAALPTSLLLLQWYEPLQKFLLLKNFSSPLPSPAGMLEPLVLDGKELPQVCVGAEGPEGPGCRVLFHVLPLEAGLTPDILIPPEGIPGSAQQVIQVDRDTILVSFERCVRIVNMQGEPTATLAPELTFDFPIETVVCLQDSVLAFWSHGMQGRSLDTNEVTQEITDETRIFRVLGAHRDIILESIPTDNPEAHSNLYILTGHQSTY

[6] = target: T6, HA-GCKR (full-length human, in 293 cells) (human, UniProt Q9Y4K4 1-846); assay: as above
T6 construct: not shown: HA tag

[7] = target: T7, endogenous MEKK1 of 3DO cells (UniProt P53349 2-1493, limits assumed); assay: co-immunoprecipitation of endogenous proteins from 3DO cells
T7 sequence (looked up): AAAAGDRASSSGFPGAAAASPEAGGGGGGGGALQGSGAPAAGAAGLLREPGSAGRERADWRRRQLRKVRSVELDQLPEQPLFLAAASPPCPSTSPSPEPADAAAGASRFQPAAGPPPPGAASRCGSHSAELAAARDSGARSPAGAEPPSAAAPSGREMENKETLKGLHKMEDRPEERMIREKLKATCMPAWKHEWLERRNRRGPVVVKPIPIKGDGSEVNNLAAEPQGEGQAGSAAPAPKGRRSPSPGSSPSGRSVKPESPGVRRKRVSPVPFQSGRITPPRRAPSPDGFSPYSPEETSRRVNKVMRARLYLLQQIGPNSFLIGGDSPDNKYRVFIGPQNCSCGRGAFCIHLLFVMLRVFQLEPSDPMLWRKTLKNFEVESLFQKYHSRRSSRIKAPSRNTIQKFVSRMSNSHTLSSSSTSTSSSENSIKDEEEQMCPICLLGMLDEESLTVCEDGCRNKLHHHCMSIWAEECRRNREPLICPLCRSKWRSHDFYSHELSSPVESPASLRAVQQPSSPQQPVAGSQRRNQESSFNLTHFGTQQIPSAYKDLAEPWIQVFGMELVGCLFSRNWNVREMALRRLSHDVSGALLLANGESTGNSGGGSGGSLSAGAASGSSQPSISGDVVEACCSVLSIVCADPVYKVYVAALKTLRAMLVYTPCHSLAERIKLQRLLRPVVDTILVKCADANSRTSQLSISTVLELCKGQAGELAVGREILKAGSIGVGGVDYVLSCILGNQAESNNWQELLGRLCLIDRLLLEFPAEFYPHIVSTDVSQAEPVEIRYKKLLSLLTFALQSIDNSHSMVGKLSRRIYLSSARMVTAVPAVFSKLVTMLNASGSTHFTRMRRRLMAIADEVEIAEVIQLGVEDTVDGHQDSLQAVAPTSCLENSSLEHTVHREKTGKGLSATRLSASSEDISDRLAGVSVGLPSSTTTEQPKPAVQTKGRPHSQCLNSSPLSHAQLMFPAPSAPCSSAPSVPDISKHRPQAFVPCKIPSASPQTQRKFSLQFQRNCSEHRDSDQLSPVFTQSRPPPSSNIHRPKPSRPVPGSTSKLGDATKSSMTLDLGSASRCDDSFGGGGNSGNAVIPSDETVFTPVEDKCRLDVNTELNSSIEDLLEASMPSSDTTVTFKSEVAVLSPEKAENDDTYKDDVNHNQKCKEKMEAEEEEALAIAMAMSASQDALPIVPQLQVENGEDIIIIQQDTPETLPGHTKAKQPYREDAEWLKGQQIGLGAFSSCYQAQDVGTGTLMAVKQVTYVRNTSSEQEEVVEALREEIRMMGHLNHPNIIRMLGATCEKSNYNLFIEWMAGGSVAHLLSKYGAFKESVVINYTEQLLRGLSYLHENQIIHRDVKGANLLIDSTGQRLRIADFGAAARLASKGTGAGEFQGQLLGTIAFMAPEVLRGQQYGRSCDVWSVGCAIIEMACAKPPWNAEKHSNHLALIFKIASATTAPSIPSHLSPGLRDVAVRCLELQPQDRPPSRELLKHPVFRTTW

T6 sequence (Q9Y4K4 whole entry): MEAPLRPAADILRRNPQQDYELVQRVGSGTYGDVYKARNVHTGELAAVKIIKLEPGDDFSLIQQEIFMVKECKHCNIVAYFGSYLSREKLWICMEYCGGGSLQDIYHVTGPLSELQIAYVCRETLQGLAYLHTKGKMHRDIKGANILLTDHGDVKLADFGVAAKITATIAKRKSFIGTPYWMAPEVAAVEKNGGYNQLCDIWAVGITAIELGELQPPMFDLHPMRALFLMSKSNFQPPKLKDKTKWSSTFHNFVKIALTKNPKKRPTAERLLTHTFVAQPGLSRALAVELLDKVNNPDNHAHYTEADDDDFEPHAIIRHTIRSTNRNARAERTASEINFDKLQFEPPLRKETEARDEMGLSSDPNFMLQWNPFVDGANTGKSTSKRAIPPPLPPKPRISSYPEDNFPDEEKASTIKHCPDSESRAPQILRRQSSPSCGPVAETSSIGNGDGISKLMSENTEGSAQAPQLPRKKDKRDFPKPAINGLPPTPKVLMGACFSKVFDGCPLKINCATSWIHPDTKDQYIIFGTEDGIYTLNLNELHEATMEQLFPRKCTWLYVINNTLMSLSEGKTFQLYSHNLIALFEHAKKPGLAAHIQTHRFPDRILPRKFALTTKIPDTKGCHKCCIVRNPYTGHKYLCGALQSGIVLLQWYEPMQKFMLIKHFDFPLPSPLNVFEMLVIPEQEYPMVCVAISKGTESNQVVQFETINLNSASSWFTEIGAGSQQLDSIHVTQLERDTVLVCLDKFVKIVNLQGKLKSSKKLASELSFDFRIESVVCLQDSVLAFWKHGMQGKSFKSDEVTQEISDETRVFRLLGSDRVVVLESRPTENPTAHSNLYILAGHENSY
T3 sequence (Q13233 whole entry): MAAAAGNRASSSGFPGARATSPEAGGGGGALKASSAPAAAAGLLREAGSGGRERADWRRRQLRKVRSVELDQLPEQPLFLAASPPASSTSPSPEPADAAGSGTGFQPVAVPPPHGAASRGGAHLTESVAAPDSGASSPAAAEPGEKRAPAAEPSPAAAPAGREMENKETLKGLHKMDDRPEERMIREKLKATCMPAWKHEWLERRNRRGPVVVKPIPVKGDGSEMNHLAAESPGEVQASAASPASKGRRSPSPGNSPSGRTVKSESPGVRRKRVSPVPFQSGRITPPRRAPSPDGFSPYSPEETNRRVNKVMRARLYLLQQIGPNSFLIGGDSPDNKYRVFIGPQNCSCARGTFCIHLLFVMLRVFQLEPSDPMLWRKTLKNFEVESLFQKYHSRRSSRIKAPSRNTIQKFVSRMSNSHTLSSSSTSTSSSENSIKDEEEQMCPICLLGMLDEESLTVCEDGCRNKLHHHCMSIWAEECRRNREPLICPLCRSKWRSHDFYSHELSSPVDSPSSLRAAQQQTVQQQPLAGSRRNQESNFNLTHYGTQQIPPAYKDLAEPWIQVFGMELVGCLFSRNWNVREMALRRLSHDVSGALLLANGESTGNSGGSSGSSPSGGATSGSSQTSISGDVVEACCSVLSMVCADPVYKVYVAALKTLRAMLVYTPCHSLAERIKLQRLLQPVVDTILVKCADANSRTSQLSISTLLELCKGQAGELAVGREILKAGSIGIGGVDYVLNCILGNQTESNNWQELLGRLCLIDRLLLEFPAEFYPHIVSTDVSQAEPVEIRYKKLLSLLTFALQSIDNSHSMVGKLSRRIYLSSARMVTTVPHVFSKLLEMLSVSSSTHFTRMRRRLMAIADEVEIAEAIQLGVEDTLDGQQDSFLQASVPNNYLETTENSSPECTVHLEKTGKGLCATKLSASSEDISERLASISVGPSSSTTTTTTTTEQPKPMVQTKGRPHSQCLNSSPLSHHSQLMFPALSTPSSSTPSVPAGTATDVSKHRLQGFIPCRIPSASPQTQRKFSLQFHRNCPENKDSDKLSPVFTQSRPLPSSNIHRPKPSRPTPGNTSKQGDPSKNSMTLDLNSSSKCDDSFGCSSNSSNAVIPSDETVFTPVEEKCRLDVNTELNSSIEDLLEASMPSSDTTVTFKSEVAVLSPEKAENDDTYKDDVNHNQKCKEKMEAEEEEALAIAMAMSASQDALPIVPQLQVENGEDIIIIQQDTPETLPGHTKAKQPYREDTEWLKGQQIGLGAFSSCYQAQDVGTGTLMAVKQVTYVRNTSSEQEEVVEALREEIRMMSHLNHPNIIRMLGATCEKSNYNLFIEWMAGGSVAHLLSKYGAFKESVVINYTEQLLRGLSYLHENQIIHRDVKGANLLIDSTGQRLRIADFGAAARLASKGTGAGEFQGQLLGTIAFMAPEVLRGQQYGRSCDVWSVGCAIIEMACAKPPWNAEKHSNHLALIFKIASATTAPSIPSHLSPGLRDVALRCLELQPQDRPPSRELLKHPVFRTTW
T4 sequence (O08648 whole entry): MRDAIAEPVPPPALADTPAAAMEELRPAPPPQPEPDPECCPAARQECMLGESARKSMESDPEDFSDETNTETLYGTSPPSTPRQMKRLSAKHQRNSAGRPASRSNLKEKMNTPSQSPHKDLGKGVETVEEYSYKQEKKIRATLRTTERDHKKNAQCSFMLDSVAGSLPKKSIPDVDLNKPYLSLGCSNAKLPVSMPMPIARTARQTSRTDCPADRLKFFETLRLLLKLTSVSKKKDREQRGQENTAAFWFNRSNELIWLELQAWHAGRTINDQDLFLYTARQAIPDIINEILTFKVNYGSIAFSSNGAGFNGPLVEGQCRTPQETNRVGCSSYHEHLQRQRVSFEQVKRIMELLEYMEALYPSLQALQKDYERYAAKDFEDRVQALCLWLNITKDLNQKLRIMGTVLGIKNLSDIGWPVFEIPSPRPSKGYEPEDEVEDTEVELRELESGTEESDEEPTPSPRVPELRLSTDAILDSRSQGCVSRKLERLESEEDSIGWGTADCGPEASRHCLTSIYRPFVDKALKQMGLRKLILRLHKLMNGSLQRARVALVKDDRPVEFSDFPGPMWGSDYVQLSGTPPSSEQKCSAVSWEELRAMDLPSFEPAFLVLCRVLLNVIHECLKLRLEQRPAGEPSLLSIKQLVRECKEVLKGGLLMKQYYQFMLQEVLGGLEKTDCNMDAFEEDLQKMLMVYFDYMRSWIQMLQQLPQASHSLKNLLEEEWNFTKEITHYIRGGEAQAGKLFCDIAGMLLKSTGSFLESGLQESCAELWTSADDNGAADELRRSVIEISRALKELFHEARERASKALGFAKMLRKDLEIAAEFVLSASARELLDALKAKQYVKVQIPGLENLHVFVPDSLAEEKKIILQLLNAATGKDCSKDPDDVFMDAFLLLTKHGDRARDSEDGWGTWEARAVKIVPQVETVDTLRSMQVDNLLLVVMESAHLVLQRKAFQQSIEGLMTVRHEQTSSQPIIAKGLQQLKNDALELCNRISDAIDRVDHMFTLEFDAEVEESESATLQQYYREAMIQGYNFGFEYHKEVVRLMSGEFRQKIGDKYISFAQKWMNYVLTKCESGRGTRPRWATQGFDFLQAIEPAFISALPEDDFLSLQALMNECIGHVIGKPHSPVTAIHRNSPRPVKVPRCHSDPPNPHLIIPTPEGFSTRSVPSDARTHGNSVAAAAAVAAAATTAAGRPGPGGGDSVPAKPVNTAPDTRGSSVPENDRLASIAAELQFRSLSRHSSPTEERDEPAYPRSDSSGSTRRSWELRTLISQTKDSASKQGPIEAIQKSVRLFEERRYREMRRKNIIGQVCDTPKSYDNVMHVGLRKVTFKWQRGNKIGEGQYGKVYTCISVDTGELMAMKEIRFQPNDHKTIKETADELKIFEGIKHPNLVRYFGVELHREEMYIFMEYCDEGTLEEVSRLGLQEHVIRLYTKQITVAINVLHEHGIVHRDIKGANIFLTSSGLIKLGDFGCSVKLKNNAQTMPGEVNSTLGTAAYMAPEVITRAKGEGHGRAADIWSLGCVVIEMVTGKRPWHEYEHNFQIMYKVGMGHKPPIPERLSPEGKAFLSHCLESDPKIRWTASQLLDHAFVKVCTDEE

binding result [1]: binds
binding result [2]: no binding
binding result [3]: no binding
binding result [4]: binds
binding result [5]: no binding
binding result [6]: no binding
B1: FLAG-Gadd45β (full-length murine Gadd45β, pcDNA-FLAG-Gadd45β, expressed in 293 cells) (other, UniProt P22339 1-160, looked up)
chain: MTLEELVASDNAVQKMQAVTAAVEQLLVAAQRQDRLTVGVYEAAKLMNVDPDSVVLCLLAIDEEEEDDIALQIHFTLIQSFCCDNDIDIVRVSGMQRLAQLLGEPAETLGTTEARDLHCLLVTNCHTDSWKSQGLVEVASYCEESRGNNQWVPYISLEER
notes: range 1-160; Co-expressed with HA-tagged kinases in 293 cells for co-immunoprecipitation; not shown: FLAG tag

binding result [7]: no binding
B2: Gadd45β in cells (untagged full-length: endogenous in 3DO cells and MEFs, or stably expressed in 3DO-IκBαM-Gadd45β clones) (other, UniProt P22339 1-160, looked up)
chain: B1 chain
notes: also called endogenous Gadd45β

Source: patent publication US20050265970A1 (UNIVERSITY OF CHICAGO, published 2005)
